Source: patent CN115710315A (DONGGUAN PENGZHI BIOTECHNOLOGY CO LTD, dated 2023)

Target: T1, CA15-3抗原 (UniProt P15941 24-1097, limits assumed)
T1 construct: The origin of the antigen preparation used in the assays is not described; also called CA15-3(MUC1); CA15-3蛋白
Experiment: BLI, AMC sensor, antibody immobilised at 10 ug/ml, CA15-3 antigen in serial dilution

T1 sequence (P15941 24-1097 limits assumed): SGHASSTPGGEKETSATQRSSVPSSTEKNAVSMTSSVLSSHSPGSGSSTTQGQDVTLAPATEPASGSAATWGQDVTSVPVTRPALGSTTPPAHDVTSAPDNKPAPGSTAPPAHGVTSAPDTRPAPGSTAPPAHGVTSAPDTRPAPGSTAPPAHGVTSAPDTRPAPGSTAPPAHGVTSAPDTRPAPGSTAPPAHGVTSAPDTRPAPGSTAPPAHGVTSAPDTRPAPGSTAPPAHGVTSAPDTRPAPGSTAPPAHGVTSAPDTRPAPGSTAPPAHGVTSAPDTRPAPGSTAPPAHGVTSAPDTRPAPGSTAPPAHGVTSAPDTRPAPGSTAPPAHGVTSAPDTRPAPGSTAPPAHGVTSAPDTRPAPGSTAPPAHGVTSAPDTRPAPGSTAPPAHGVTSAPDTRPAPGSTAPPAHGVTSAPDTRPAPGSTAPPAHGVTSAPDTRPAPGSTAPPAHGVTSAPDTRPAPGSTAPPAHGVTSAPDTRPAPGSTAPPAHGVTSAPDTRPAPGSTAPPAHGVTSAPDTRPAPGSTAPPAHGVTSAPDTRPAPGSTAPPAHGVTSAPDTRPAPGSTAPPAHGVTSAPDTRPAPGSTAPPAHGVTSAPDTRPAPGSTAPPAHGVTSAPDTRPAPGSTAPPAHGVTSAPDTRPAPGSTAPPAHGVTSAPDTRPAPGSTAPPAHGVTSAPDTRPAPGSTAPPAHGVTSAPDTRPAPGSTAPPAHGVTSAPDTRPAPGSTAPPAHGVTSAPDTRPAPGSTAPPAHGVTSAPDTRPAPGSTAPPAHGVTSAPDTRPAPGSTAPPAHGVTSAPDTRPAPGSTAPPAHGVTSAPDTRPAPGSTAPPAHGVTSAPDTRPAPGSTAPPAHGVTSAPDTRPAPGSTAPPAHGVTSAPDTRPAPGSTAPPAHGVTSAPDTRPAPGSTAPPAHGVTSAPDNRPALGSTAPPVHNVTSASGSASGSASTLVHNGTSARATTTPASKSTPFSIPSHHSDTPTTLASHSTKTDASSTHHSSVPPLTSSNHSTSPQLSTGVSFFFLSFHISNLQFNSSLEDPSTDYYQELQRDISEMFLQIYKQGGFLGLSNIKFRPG

Row | Kd | koff | kon | Molecule
1 | 84.5 nM | 0.00375 s⁻¹ | 44400 M⁻¹ s⁻¹ | 对照 (antibody)
2 | 5.17 nM | 0.000161 s⁻¹ | 31100 M⁻¹ s⁻¹ | Anti-CA15-3 3F10 (antibody, V domains shown) VH: EVQLVESGGGLVKPGGSLKLSCAASGFAFSNYPMSWVRQTPEMRLEWVAYISSGGDSTYYPGTVKGRFTISRDNAKSALYLQMSSLKSEDTAMYYCTFWFRGFDYWGQGTTLTVSS VL: DVLMTQIPLSLPVSLGDQASLSCRSSQSIVHSNGNTYLEWYLQKPGQSPKLLIYKVSNRFSGVPDRFSGSGSGTDFTLKISRVEAEDLGVYYCFQGSHVPYTFGGGTKLEIK
